Test results reported in paper PMC3574121.

Experiments:
[1] = molecular target: His-tagged FIV recombinant p24 capsid protein (Feline Immunodeficiency Virus, Petaluma strain) (Feline immunodeficiency virus (Petaluma strain)) (UniProt P16087); experiment: ITC; dilution ITC: p24 at 7 mg/ml (243 µM) injected into buffer alone, 50 mM sodium phosphate pH 7.4, 30°C; dimer dissociation model; dimer to monomers
[2] = molecular target: His-tagged FIV recombinant p24 capsid protein (Feline Immunodeficiency Virus, Petaluma strain) (Feline immunodeficiency virus (Petaluma strain)) (UniProt P16087); experiment: dynamic light scattering; p24-His at 7 mg/ml, 50 mM sodium phosphate pH 7.4, 23°C; mean diameter 6.8 nm, single peak; monomer to dimer
[3] = molecular target: His-tagged FIV recombinant p24 capsid protein (Feline Immunodeficiency Virus, Petaluma strain) (Feline immunodeficiency virus (Petaluma strain)) (UniProt P16087); experiment: cross-linking; p24 at 7 mg/ml with BS3 (20:1 w/w BS3:p24), 30 min at room temperature, SDS-PAGE; dimer seen with and not without BS3; no higher molecular weight species

Question: What does the source list for “His-tagged FIV recombinant p24 capsid protein (Feline Immunodeficiency Virus, Petaluma strain) (from UniProt P16087 136-357) (natural protein)”?
Answer: Kd [1]: 20 µM; stoichiometry N [2]: 2; stoichiometry N [3]: 2
